# B1: 10F7 single chain antibody (scFv)
# scFv: QVQLQQPGAELVKPGASVKLSCKASGYTFTSYWMHWVKQRPGQGLEWIGEIDPSDSYTNYNQKFKGKATLTVDKSSSTAYMQLSSLTSEDSAVYYCARGGTGDFHYAMDYWGQGTSVTVSSGGGGSDILMTQSPSSMSVSLGDTVSITCHASQGISSNIGWLQQKPGKSFKGLIYHGTNLEDGVPSRFSGSGSGADYSLTISSLESEDFADYYCVQYVQFPYTFGGGTKLEIKR
# Molecular target: Inactivated influenza H5N1, Ck HK Yu22/02 (Influenza A virus Ck/HK/Yu22/02 (H5N1))
# Assay: cell-based or functional assay
binder,measurement,value
B1,neutralization: dilution of 10F7 scFv (fold dilution),64
